Experimental data published in doi:10.1101/557132.

Key:
[1] = molecular target: human SNAP_GLP1R on CHO-K1 cells (human) (UniProt P43220)
[2] = molecular target: SNAP_GLP1R on YFP-AD293 cells (human) (UniProt P43220)
[3] = molecular target: SNAP_GLP1R on YFP-AD293 cells (human) (UniProt P43220); assay: fluorescent ligand labelling of cells

Sequence of SNAP_GLP1R on YFP-AD293 cells (human) (P43220 24-463): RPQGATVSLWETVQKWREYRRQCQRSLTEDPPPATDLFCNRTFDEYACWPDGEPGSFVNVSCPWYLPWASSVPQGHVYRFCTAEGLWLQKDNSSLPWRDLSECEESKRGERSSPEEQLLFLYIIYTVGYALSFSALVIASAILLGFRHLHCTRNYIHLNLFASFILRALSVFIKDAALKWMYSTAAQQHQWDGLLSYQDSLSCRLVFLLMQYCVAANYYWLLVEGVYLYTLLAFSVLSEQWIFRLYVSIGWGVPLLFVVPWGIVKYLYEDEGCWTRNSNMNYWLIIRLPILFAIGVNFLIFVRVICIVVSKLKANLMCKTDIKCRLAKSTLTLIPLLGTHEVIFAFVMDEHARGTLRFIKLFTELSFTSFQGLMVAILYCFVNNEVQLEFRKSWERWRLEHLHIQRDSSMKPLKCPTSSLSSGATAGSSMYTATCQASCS
Sequence of human SNAP_GLP1R on CHO-K1 cells (human) (P43220 24-463): as above

Substance | block of GLP-1-induced cAMP production through GLP1R (cAMP-Glo) [1] [nM] | cAMP production (cAMP-Glo) [2] [nM] | cAMP production (cAMP-Glo) with the positive allosteric modulator BETP [2] [nM] | concentration at maximum labeling [3] [nM] | cAMP production (cAMP-Glo) with the positive allosteric modulator BETP [1] [nM]
Exendin4(9-39) (peptide) | 38.4 |  |  |  | 
LUXendin555 (peptide) |  | 130 | 28.4 |  | 
LUXendin645 (peptide) | 73.1 |  |  | 100 | 9.3
S39C-Exendin4(9-39) (peptide) | 34.8 |  |  |  | 
